Molecular target: active MMP-2 (Calbiochem) (UniProt P08253)
Assay: cell-based or functional assay

Sequence of UniProt P08253 (P08253 110-660 limits assumed): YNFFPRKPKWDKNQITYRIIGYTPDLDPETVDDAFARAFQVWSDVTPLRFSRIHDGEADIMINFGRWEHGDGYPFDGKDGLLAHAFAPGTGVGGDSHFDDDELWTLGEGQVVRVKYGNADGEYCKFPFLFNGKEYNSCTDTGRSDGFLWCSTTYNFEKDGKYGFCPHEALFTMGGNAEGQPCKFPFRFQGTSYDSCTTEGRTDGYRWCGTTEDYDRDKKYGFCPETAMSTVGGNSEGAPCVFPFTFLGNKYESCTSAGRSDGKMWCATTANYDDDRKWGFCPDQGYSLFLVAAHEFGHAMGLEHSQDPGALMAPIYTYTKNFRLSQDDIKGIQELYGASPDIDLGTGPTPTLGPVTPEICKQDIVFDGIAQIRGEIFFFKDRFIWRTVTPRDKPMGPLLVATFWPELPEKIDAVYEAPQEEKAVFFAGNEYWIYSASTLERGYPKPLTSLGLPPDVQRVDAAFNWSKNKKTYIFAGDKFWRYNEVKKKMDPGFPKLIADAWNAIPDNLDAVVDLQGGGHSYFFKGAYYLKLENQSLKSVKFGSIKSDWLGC

inhibition in MMP-2 protease activity compared to untransfected NIKS (EnzChek Gelatinase/Collagenase Assay, DQ gelatin): < 40%
Substance: TIMP-1-HA (exogenous human TIMP-1 with a C-terminal HA epitope tag, secreted by stable NIKS clone INV TIMP-1-HA:28) (from UniProt P01033 24-207)

— patent US20060257383A1
